Experimental data: the supplement of paper PMC10724198
± gives the standard deviation of the averaged measurements.

Experiments:
Saccharomyces cerevisiae [1] = assay: protein stability index of tFT-peptide fusion (C-terminal peptide) (PSI (0-1 scale)); higher = more stable (slower turnover)
Protocol: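 MPS profiling in S. cerevisiae of the tFT-X12 degron library: putative degron peptides plus stable controls, 12 aa, fused to the C-terminus of a sfGFP-mCherry timer. Cells are FACS-sorted into 8 mCherry/sfGFP bins and deep-sequenced. PSI runs from 0 (unstable) to 1 (stable). Backgrounds are wild type, das1Δ and doa10Δ at 30 °C, and wild type, das1Δ, cdc34-1 and cdc53-1 at 37 °C; 2-3 technical replicates each.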

Saccharomyces cerevisiae [2] = assay: as above; details: genetic background: wild type; temperature: 30 C
[3] = genetic background: cdc34-1, temperature: 37 C
[4] = genetic background: cdc53-1, temperature: 37 C
[5] = genetic background: das1 deletion, temperature: 30 C
[6] = genetic background: das1 deletion, temperature: 37 C
[7] = genetic background: doa10 deletion, temperature: 30 C
[8] = genetic background: wild type, temperature: 30 C
[9] = genetic background: wild type, temperature: 37 C
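Also: PSI is a weighted mean of sequencing reads over stability bins, variants kept only with over 10 reads, mCherry proximal and sfGFP distal, peptide attached via GGGS linker.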

Row | Sequence | protein stability index (Saccharomyces cerevisiae [1]; [3]) | protein stability index (Saccharomyces cerevisiae [1]; [4]) | protein stability index (Saccharomyces cerevisiae [1]; [5]) | protein stability index (Saccharomyces cerevisiae [1]; [6]) | protein stability index (Saccharomyces cerevisiae [1]; [7]) | protein stability index (Saccharomyces cerevisiae [1]; [8]) | protein stability index (Saccharomyces cerevisiae [1]; [9]) | protein stability index (Saccharomyces cerevisiae [2])
1 | GRLRLGVLCGGV | 0.611 ± 0.016 | 0.661 ± 0.014 | 0.469 ± 0.021 | 0.655 ± 0.018 | 0.454 ± 0.0071 | 0.472 ± 0.013 | 0.634 ± 0.017 | 0.529 ± 0.045
2 | FCVCLAVTCCGG | 0.279 ± 0.023 | 0.42 ± 0.013 | 0.277 ± 0.023 | 0.477 ± 0.0066 | 0.215 ± 0.0029 | 0.26 ± 0.024 | 0.42 ± 0.011 | 0.354 ± 0.01
3 | TPLLPPSPPPSR | 0.647 ± 0.02 |  | 0.27 ± 0.02 | 0.46 ± 0.0089 | 0.244 ± 0.0028 | 0.277 ± 0.017 | 0.4348 ± 0.0042 | 0.3328 ± 0.0026
4 | YFIVVSWFLVCW | 0.0981 ± 0.019 | 0.199 ± 0.022 | 0.114 ± 0.029 | 0.218 ± 0.0028 | 0.072 ± 0.017 | 0.121 ± 0.0079 | 0.168 ± 0.029 | 0.184 ± 0.005
5 | GGWSFSSLWKIA | 0.625 ± 0.066 | 0.817 ± 0.015 | 0.765 ± 0.038 | 0.8379 ± 0.0033 | 0.126 ± 0.013 | 0.127 ± 0.019 | 0.205 ± 0.012 | 0.301 ± 0.09
6 | FVVFYFFLLFGV | 0.318 ± 0.032 | 0.379 ± 0.0099 | 0.298 ± 0.034 | 0.454 ± 0.023 | 0.289 ± 0.006 | 0.264 ± 0.025 | 0.4219 ± 0.0009 | 0.3283 ± 0.00033
7 | RFLACSIRYLVY | 0.294 ± 0.012 | 0.425 ± 0.037 | 0.286 ± 0.025 | 0.41 ± 0.008 | 0.227 ± 0.0073 | 0.277 ± 0.018 | 0.4 ± 0.027 | 0.332 ± 0.025
8 | YSALHNPPQPVT | 0.665 ± 0.032 | 0.725 ± 0.014 | 0.6556 ± 0.0065 | 0.7216 ± 0.0049 | 0.658 ± 0.014 | 0.658 ± 0.011 | 0.6971 ± 0.0062 | 0.736 ± 0.02
9 | LCLLIHFWISHL | 0.302 ± 0.0069 | 0.44 ± 0.009 | 0.295 ± 0.028 | 0.43 ± 0.019 | 0.167 ± 0.0048 | 0.173 ± 0.013 | 0.2932 ± 0.0011 | 0.244 ± 0.023
10 | VLVLLVCVAALV | 0.1393 ± 0.00032 | 0.222 ± 0.0053 | 0.163 ± 0.023 | 0.295 ± 0.017 | 0.1463 ± 0.00088 | 0.163 ± 0.025 | 0.244 ± 0.014 | 0.239 ± 0.0026
11 | LYLEAYFCIFHF | 0.356 ± 0.052 | 0.449 ± 0.0069 | 0.358 ± 0.025 | 0.422 ± 0.013 | 0.334 ± 0.017 | 0.327 ± 0.004 | 0.401 ± 0.015 | 0.36 ± 0.024
12 | VFGCHHLEVSVC | 0.248 ± 0.012 | 0.267 ± 0.0036 | 0.259 ± 0.034 | 0.377 ± 0.0065 | 0.203 ± 0.012 | 0.241 ± 0.024 | 0.34 ± 0.012 | 0.34 ± 0.0065
13 | MDLVSEYKIKVN | 0.62 ± 0.026 | 0.712 ± 0.053 | 0.56 ± 0.034 | 0.704 ± 0.02 | 0.176 ± 0.006 | 0.226 ± 0.038 | 0.473 ± 0.0088 | 0.31 ± 0.004
14 | VRYCFFWVRAVV | 0.286 ± 0.027 | 0.335 ± 0.019 | 0.233 ± 0.04 | 0.4555 ± 0.0013 | 0.173 ± 0.0088 | 0.194 ± 0.022 | 0.3718 ± 0.0019 | 0.278 ± 0.051
15 | VCLLVSVCLLWL | 0.172 ± 0.0043 | 0.244 ± 0.047 | 0.21 ± 0.013 | 0.329 ± 0.021 | 0.18 ± 0.023 | 0.192 ± 0.025 | 0.309 ± 0.016 | 0.252 ± 0.015
16 | RCIRRWPYILKL | 0.576 ± 0.017 | 0.667 ± 0.0087 | 0.615 ± 0.038 | 0.758 ± 0.059 | 0.214 ± 0.0092 | 0.206 ± 0.042 | 0.285 ± 0.031 | 0.273 ± 0.019
17 | FVICGMLVHWMV | 0.479 ± 0.04 | 0.536 ± 0.084 | 0.376 ± 0.028 | 0.58244 ± 0.00049 | 0.321 ± 0.0041 | 0.344 ± 0.02 | 0.5356 ± 0.0023 | 0.434 ± 0.01
18 | VGKGAGVRDGSR | 0.693 ± 0.068 | 0.751 ± 0.019 | 0.623 ± 0.0077 | 0.7598 ± 0.0072 | 0.651 ± 0.017 | 0.645 ± 0.011 | 0.713 ± 0.016 | 0.707 ± 0.026
19 | SDAIKITFIIHN | 0.687 ± 0.043 | 0.632 ± 0.024 | 0.59 ± 0.012 | 0.667 ± 0.016 | 0.425 ± 0.01 | 0.46 ± 0.009 | 0.586 ± 0.0065 | 0.473 ± 0.062
20 | GWLRHGWWRTVG | 0.605 ± 0.024 | 0.709 ± 0.0069 | 0.658 ± 0.024 | 0.734 ± 0.011 | 0.152 ± 0.0082 | 0.17 ± 0.018 | 0.4286 ± 0.00089 | 0.313 ± 0.0015
21 | FCMLCVVFLGSL | 0.43 ± 0.067 | 0.532 ± 0.0092 | 0.39 ± 0.029 | 0.6206 ± 0.0047 | 0.358 ± 0.01 | 0.397 ± 0.015 | 0.596 ± 0.026 | 0.505 ± 0.034
22 | PRRVTVPGVPPL | 0.672 ± 0.018 | 0.736 ± 0.033 | 0.669 ± 0.035 | 0.737 ± 0.014 | 0.643 ± 0.01 | 0.66 ± 0.01 | 0.7039 ± 0.0025 | 0.71 ± 0.014
23 | KLVFLLCLNKVF | 0.51474 ± 0.00047 | 0.5887 ± 0.0014 | 0.439 ± 0.017 | 0.63 ± 0.0047 | 0.173 ± 0.018 | 0.199 ± 0.013 | 0.29 ± 0.0089 | 0.243 ± 0.037
24 | LSSIIRFLIFCL | 0.496 ± 0.024 | 0.532 ± 0.015 | 0.495 ± 0.024 | 0.5964 ± 0.0026 | 0.398 ± 0.031 | 0.366 ± 0.0049 | 0.469 ± 0.0062 | 0.404 ± 0.013
25 | LLLFLHILRYVF | 0.541 ± 0.026 | 0.551 ± 0.015 | 0.417 ± 0.028 | 0.581 ± 0.046 | 0.398 ± 0.025 | 0.368 ± 0.016 | 0.529 ± 0.088 | 0.414 ± 0.026
26 | IIPAFPFAFLAF | 0.527 ± 0.0088 | 0.526 ± 0.018 | 0.415 ± 0.026 | 0.565 ± 0.0086 | 0.432 ± 0.0046 | 0.407 ± 0.017 | 0.541 ± 0.0073 | 0.489 ± 0.0067
27 | YQFDGLVFLRLS | 0.716 ± 0.02 | 0.724 ± 0.0064 | 0.645 ± 0.014 | 0.774 ± 0.018 | 0.3501 ± 0.0014 | 0.4 ± 0.017 | 0.6515 ± 0.00071 | 0.4808 ± 0.0011
28 | RCSLFAKQVVSL | 0.381 ± 0.032 | 0.442 ± 0.029 | 0.451 ± 0.012 | 0.405 ± 0.0067 | 0.437 ± 0.021 | 0.43 ± 0.0057 | 0.37093 ± 0.00035 | 0.453 ± 0.074
29 | IKERRKVSMKVY | 0.639 ± 0.023 | 0.688 ± 0.02 | 0.519 ± 0.035 | 0.677 ± 0.018 | 0.321 ± 0.009 | 0.373 ± 0.015 | 0.557 ± 0.032 | 0.474 ± 0.022
30 | FILLTLVFGCAS | 0.188 ± 0.0054 | 0.313 ± 0.025 | 0.228 ± 0.02 | 0.424 ± 0.0066 | 0.196 ± 0.0089 | 0.22 ± 0.035 | 0.375 ± 0.0071 | 0.309 ± 0.025
